Source: patent US12697350B2, “Methods and compositions for treating a premature termination codon-mediated disorder” (Tevard Biosciences, Inc., priority 2019, dated 2026)

How the values were obtained:
EGFP-R96X-TGA = experiment: Readthrough of suppressor tRNA delivered by AAV-PHP.eB, EGFP-R96X-TGA, 293 cells pre-transfected with LY6A (FIG. 41); assay type: cell-based, human
Description: FIG. 40 is a schematic representation of constructs that were packaged into AAV-PHP.eB capsids. Construct 262 contains wild-type EGFP driven by an EF1a promoter. Construct 269 contains EGFP-R96X-TGA driven by an EF1a promoter (SEQ ID NO: 177) and two copies of the ArgTCA suppressor tRNA #115 (SEQ ID NO: 18) (“TCA-115”) in the context of 55 bps upstream flanking genomic DNA from tRNA-Tyr-GTA-5-1 (SEQ ID NO: 900). Both constructs contain 5′ and 3′ ITR sequences from AAV2, which provide cis-acting elements for AAV replication and packaging.
FIG. 41 depicts readthrough activity of suppressor tRNAs delivered by AAV. AAV-PHP.eB containing the constructs shown in FIG. 40 was produced by Vigene Biosciences. 48 hours prior to AAV transduction, 293 cells were pre-transfected with an expression construct containing the LY6A gene, which is required for robust transduction by AAV-PHP.eB. Cells were transduced at an MOI of 1E5 vg/cell. Where indicated, cells were also transfected with an expression construct containing the EGFP-R96X-TGA reporter (SEQ ID NO: 31) and an expression construct containing the ArgTCA suppressor tRNA #115 (SEQ ID NO: 18). At 72 hours post transduction, the EGFP signal was quantified by immunofluorescence. Live cell images were captured on an EVOS FL Auto 2 imaging system. […]

Neuro-2a cells = assay type: cell-based, mouse
Protocol: FIG. 23 is a graph depicting cell viability from FIG. 22 as measured by flow cytometry at ~48 hours post transfection. Neuro-2a cells were transfected with an expression construct containing the EGFP-R96X-TGA reporter (“GFP-PTC”) and either (i) transfected with an expression construct including the ArgTCA suppressor tRNA #115 (SEQ ID NO: 18) at the indicated copy number on the same construct, or (ii) treated with ataluren at the indicated concentration, (iii) treated with gentamicin at the indication concentration, or (iv) treated with G418 at the indicated concentration. For all experimental conditions, cell culture medium was replaced with fresh medium ~6 hour after transfection and the indicated drugs at the indicated concentrations were added at this point. A reporter containing wildtype GFP without a PTC (“WT-GFP”) was used as a control. “Mock” indicates mock transfected cells. “4×TCG” indicates cells transfected with an expression construct that contains four copies of a wild-type Arg-tRNA with a TCG anticodon and the EGFP-R96X-TGA reporter. Cell viability was assessed by flow cytometry using 7-Amino Actinomycin D (7-AAD), a membrane impermeant dye that is generally excluded from viable cells.
FIG. 34 is a graph depicting cell viability from FIG. 33 as measured by flow cytometry at ~48 hours post transfection. […] Cell viability was assessed by flow cytometry using 7-Amino Actinomycin D (7-AAD), a membrane impermeant dye that is generally excluded from viable cells.
FIG. 36 is a graph depicting cell viability from FIG. 35 as measured by flow cytometry at ~48 hours post transfection. […] Cell viability was assessed by flow cytometry using 7-Amino Actinomycin D (7-AAD), a membrane impermeant dye that is generally excluded from viable cells. […]

B1: tRNA-Arg-TCT-2-1-TCA-SUP_no intron (nucleic acid)
chain: GGCTCCGTGGCGCAATGGATAGCGCATTGGACTTCAAATTCAAAGGTTCCGGGTTCGAGTCCCGGCGGAGTCG
modifications: chemistry not fully specified
- readthrough activity, AAV delivery versus transient transfection (EGFP-R96X-TGA; 293 cells pre-transfected with LY6A): comparable readthrough activity when delivered by AAV or transient transfection
- PTC readthrough based on GFP intensity (EGFP-R96X-TGA; AAV-PHP.eB with construct 269 (two copies of #115), MOI 1E5 vg/cell, 72 hours post transduction, normalized to construct 262 (wild-type EGFP)): ~ 13.2%
- cell viability (Neuro-2a cells): not accompanied by a decrease in cell viability
